These results are taken from patent US20240174744A1 (SCIRHOM, published 2024).

Changes are numbered by the printed parent chain.

The experiment deals with T1, miR2-FL-WT-FLAG (mouse iRhom2 full length wild type C-terminally tagged with the triple-FLAG epitope) (mouse, UniProt Q80WQ6 1-827).
T1 construct: also called expressed by MEF-DKO-miR2-FL-WT-FLAG cells
T1 sequence: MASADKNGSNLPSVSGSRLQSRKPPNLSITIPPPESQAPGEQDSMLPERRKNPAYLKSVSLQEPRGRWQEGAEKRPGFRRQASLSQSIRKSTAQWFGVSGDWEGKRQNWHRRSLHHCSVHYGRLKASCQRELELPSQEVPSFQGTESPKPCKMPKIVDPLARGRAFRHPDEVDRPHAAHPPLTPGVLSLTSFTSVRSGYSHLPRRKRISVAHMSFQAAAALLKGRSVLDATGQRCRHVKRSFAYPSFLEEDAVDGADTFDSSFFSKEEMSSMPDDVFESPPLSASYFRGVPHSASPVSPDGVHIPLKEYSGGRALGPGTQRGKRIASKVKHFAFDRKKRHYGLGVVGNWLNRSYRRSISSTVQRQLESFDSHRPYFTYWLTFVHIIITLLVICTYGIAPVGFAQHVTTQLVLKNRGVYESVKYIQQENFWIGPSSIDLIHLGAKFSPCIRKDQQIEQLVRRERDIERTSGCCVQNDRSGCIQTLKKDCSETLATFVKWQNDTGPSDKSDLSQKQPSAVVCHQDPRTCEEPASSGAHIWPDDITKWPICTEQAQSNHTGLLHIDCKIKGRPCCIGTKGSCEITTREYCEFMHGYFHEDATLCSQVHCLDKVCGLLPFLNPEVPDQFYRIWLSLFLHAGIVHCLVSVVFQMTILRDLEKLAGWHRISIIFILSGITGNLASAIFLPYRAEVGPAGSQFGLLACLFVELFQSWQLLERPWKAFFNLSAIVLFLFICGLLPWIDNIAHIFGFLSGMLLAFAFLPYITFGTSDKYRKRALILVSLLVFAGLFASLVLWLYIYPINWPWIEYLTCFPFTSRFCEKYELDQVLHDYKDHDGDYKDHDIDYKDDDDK
The experiment is described as follows: FACS, MEF-DKO-miR2-FL-WT-FLAG cells. The procedure: In brief, immortalized MEF-DKO-EV control cells, MEF-DKO-hiR2-FL-WT-FLAG cells and MEF-DKO-miR2-FL-WT-FLAG cells were harvested with 10 mM EDTA in PBS, washed and resuspended in FACS buffer (PBS, 3% FBS, 0.05% sodium azide), and seeded in Nunc U-bottom 96-well plates (Thermo Fisher Scientific, USA) at approximately 3×10⁵ cells per well. To pellet cells and remove supernatants, the plates were centrifuged at 1,500 rpm and 4° C. for 3 minutes. For primary staining, cells were resuspended in 100 μl per well of either FACS buffer alone (controls), mouse monoclonal anti-FLAG IgG (Sigma-Aldrich, USA) at 3 μg/ml FACS buffer or the antibodies of the present disclosure also at 3 μg/ml FACS buffer and incubated on ice for 1 hour. Afterwards, plates were centrifuged at 1,500 rpm and 4° C. for 3 minutes and washed twice with 200 μl per well of FACS buffer. For secondary staining, cells were spun down and resuspended in 100 μl per well of PE-conjugated goat anti-mouse IgG F(ab′)2 detection fragment (Dianova, Germany) diluted 1:100 in FACS buffer. Protected from light, the cell suspensions were incubated on ice for 1 hour. Plates were then centrifuged at 1,500 rpm and 4° C. for 3 minutes and washed three times with 200 μl per well of FACS buffer. Finally, cells were resuspended in 150 μl per well of FACS buffer and analyzed using a BD Accuri™ C6 Plus flow cytometer (Becton Dickinson, Germany).
Background: In flow cytometry, cells or beads pass a laser one at a time.

B1: antibody 51 (antibody, V domains shown)
VH: QVQLQQSGAELVKPGASVKISCKASGYTFSNYWMNWVKQRPGKGLEWIGQIYPGDGDTKYNGKFKNKATLTADKSSSTAYMQFSSLTSEDSAVYFCARGDLVFVYWGLGTLVTVSA
VL: DVQITQSPSYLAVSPGETITINCRASKNIRKYLAWYQEKPGKTNKLLIYSGSTSQSGVPSRFSGSGSGTDFTLTISSLEPEDFAMYYCQQHNEYPYTFGGGTKLEIK
notes: Mouse IgG, kappa light chain; also called clone #51
B1: the binding result is “no binding (tested: 3 µg/ml)”.

B2: antibody 48 (antibody, V domains shown)
VH: QVQLQQSGTELVRPGTSVKVSCKASGYAFTNYLIEWVKQRPGQGLEWIGVINPGSGFTKYNEKFKGKATLTADKSSSTVYMHLSSLTSEDSAVYFCARGLYRAMDYWGQGTSVTVSS
VL: DIQMTQSPASQSASLGESVTITCLASQTIATWLAWYQQKPGKSPQLLIYGATTLADGVPSRFSGGGSGTKFSFKISSLQAEDFVSYYCQQLYSTPYTFGGGTKLEIK
notes: Mouse IgG, kappa light chain; also called clone #48; purified antibody 48
For the molecule B2, the binding result is on record as “no binding (tested: 3 µg/ml)”.

B3: antibody 47 (antibody, V domains shown)
VH: B2 VH with T9A, K59N, T69I, T71N, V79A, H82Q, S84I, G99D, Y101K, Y106H
VL: B2 VL with A30G, Y49H, G50A, T53S, G65S, L91I, T94S
notes: Mouse IgG, kappa light chain; also called clone #47
Take B3: the binding result is “no binding (tested: 3 µg/ml)”.

B4: antibody 50 (antibody, V domains shown)
VH: B2 VH with T9A, T16A, T30S, V79A, H82Q
VL: B2 VL with A30G, G50A, T52A, T53S, S85N, L91I
notes: Mouse IgG, kappa light chain; also called clone #50; purified antibody 50
In the case of B4, the binding result is recorded as “no binding (tested: 3 µg/ml)”.

B5: antibody 46 (antibody, V domains shown)
VH: QVTLKESGPGILQPSQTLSLTCSFSGFSLSTFGMGVGWIRQPSGKGLEWLAHIWWDDDNYYNQALKSRLTISKDNTKNQVFLNIANVDTADTATYYCARIRSYDYDVRYAMDYWGQGTSVTVSS
VL: DIKMTQSPSSMYASLRERVTITCKASQDINSYLSWFQQKPGKSPKTLIYRANRLVDGVPSRFSGSGSGQDYSLTISSLEYEDLGIYYCQQYYEFPLTFGAGTRLELK
notes: Mouse IgG, kappa light chain; also called clone #46
Consider B5, for which the binding result is “no binding (tested: 3 µg/ml)”.

B6: antibody 43 (antibody, V domains shown)
VH: QVALKESGPGILQPSQTLSLTCSFSGFSLSTFGMGVGWIRQSSGKGLEWLANIWWDDDKYYNPALKSRLTISKDASKNQAFLKIANVDTADTATYYCARIGNYGSNYWYFDVWGTGTTVTVSS
VL: QIVLTQSPAIMSASPGERVTMTCSANSRISYMYWYQQKPGSSPRLLIYDTSNLASGVPVRFSGSGSGTSYSLTISRMEAEDAATYNCQQWSSYPLTFGAGTKLELK
notes: Mouse IgG, kappa light chain; also called clone #43
With B6, the binding result is recorded as “no binding (tested: 3 µg/ml)”.

B7: antibody 42 (antibody, V domains shown)
VH: B6 VH with A3T, F24L, M34R, S42P, N52H, D58E, A75T, A80V, K83R, G101Q
VL: B6 VL with Q1L, R18K, S24G, N26T, Y33F, L45V, M77V, A82V, N86Y, S91N
notes: Mouse IgG, kappa light chain; also called clone #42; m42
As to B7, the binding result is reported as “no binding (tested: 3 µg/ml)”.

B8: antibody 57 (antibody, V domains shown)
VH: B6 VH with A3T, S42P, N52H, A75T, A80I, T92S, Y95F, G101E
VL: B6 VL with R18K, N26S, R28S, I29V, L45V, I74V, N86Y, S91N
notes: Mouse IgG, kappa light chain; also called clone #57
For the molecule B8, the binding result is “no binding (tested: 3 µg/ml)”.

B9: antibody 54 (antibody, V domains shown)
VH: QVTLKESGPGILQPSQTLSLTCSFSGFSLSTFGLGVGWIRQPSGKGLECLAHIWWDDDKYSNPALKSRLTISKDTSKNQVFLKIANVDSADTATYFCARILNYGSNYWYFDVWGTGTTVTVSS
VL: B6 VL with I10L, R18K, N26S, R28S, Y70F, I74V, N86Y, S91N
notes: Mouse IgG, kappa light chain; also called clone #54
As to B9, the binding result was “no binding (tested: 3 µg/ml)”.

B10: antibody 44 (antibody, V domains shown)
VH: B6 VH with A3T, S42P, G44E, N52H, A75T, A80I, A85T, D91E, A98S
VL: QIVLTQSPAVMSASPGEKVTMTCTASSSVYYMYWYQQTPGSSPRLLIYDTSNLASGVPVRFSGSGSGTSYSLTISRMEAEDAATYYCQQWNTYPLTFGAGTKLELK
notes: Mouse IgG, kappa light chain; also called clone #44; m44
For B10, the binding result is “no binding (tested: 3 µg/ml)”.

B11: antibody 5 (antibody, V domains shown)
VH: B6 VH with A3T, S42P, N52H, D58E, P63S, D74A, A75T, G101S, D111N
VL: QVVLTQSPALMSASPGEKVTMTCSAGSSVSCMYWYQQKPGSSPRVLIYDTSNLASGVPARFTGSGSGTSYSLTISRMEAEDAASYYCQQWNSYPLTFGAGTKLELK
notes: Mouse IgG, kappa light chain; also called clone #5; purified antibody 5
For B11, the binding result is “no binding (tested: 3 µg/ml)”.

B12: antibody 22 (antibody, V domains shown)
VH: B6 VH with A3T, S42P, N52H, D58E, P63S, D74A, A75T, A80V, G101S, D111N
VL: B11 VL with C31Y, S84T
notes: Mouse IgG, kappa light chain; also called clone #22; m22
B12: the binding result was “no binding (tested: 3 µg/ml)”.

B13: antibody 56 (antibody, V domains shown)
VH: B6 VH with A3T, S42P, A51T, P63S, A64V, A75T, A80V, G101A, N102A
VL: B6 VL with R18K, N26S, R28S, I29V, L45V, A54S, N86Y
notes: Mouse IgG, kappa light chain; also called clone #56
Regarding B13, the binding result is “no binding (tested: 3 µg/ml)”.

B14: antibody 49 (antibody, V domains shown)
VH: QVTLKESGPGILQPSQTLSLTCSFSGFSLSTFGMGVGWIRQPSGKGLEWLAHIWWDDDKYYNPALQSRLTVSKDTAKNQVFLKIANVDTADTAIYYCARVGNYGSNYWYFAVWGTGTTVTVSS
VL: B10 VL with V10I, T24S, Y30S, T38K, T92S
notes: Mouse IgG, kappa light chain; also called clone #49
For B14, the binding result is reported as “no binding (tested: 3 µg/ml)”.

B15: antibody 16 (antibody, V domains shown)
VH: QVTLKESGPGILQPSQTLSLTCSFSGFSLSTFALGVGWIRQPSGRGLEWLAHIWWDDDKYYNPALKSRLTISKDTSKNHVFLKIANVDTADTATYYCARITTYYYGMDYWGQGTSVTVSS
VL: DIVLSQSPATLSVTPGDSVSLFCRASQSIGNHLHWYQQESHASPRLLIKYASQSISGIPSRFSGSGSGTDFTLSINSVETEDFGMYFCQQSYNWPLTFGAGTKLELK
notes: Mouse IgG, kappa light chain; also called clone #16; m16
In the case of B15, the binding result is reported as “no binding (tested: 3 µg/ml)”.

B16: antibody 34 (antibody, V domains shown)
VH: QVTLKESGPGILQPSQTLSLTCSFSGFSLSTFSLGVGWIRQSSGKGLEWLAHIWWDDEKYYNPALKSRLTISKDTSKNQVFLKIANVDAADTATYYCARAYYSKSYYALDYWGQGTSVTVSS
VL: DIQMTQSPSSLSASLGERVSLTCRASQEISGYLSWLQQKPDGTIKRLIYAASTLDSGVPKRFSGSRSGSDYSLAISSLESEDFADYYCLQYANFPFTFGSGTKLEIK
notes: Mouse IgG, kappa light chain; also called clone #34; m34
Consider B16, for which the binding result is on record as “no binding (tested: 3 µg/ml)”.
